Among the data in US20230174617A1 are Kd values, retold here.

Assay [1] addresses recombinant human neonatal Fc receptor (rhFcRn, R&D systems) (human) (UniProt P55899). In words: SPR, rhFcRn on CM5, analyte in PBST pH 6.0, steady state affinity. (In SPR one partner is held on a chip, and binding of the other changes the refractive index at the surface.)
The target is the same in assay [2]. Put plainly: SPR (Biacore 8K), rhFcRn amine-coupled on CM5, analyte in PBST pH 6.0, steady state affinity.

Chain of recombinant human neonatal Fc receptor (rhFcRn, R&D systems) (human) (P55899 24-297 limits assumed, chain 1 of 2): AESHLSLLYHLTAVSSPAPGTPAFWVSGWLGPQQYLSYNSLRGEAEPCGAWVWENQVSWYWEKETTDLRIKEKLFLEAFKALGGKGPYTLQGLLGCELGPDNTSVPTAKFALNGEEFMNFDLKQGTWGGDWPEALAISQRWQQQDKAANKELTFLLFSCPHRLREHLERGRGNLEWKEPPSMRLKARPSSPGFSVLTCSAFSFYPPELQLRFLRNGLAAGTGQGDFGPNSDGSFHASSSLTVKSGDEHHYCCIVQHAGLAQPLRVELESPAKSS
Chain of recombinant human neonatal Fc receptor (rhFcRn, R&D systems) (human) (chain, as listed by the source limits assumed, chain 2 of 2): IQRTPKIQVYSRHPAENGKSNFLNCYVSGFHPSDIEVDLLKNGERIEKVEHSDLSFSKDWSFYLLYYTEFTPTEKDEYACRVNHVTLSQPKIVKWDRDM

Regarding Rituximab (antibody), the dissociation constant Kd in assay [1] worked out at 2390 nM.
Take “dulaglutide (trade name Trulicity) (Fc fusion)”: in assay [2], the equilibrium dissociation constant (Kd) was 2090 nM.

What is called Kd is the constant that tells how readily two partners part at equilibrium.
